In the supplement of paper PMC10567573:

B1: BTBD10 (parent)
chain: FVYENAKEGARNIRTSERVTLIVD

Variants of: B1
Assay: protein stability index of a GFP-peptide fusion (GPS, HEK-293T) (PSI 1-6); higher = more stable
Settings: c terminus: a fixed tail appended
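Note: lentivirally expressed fusions sorted by FACS into six bins by GFP to DsRed ratio, PSI derived from sequencing read proportions per bin multiplied by bin number.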

Protein stability index, by site and new letter:
V23: W 1.4; R 2.68; H 2.26; T 2.16; I 1.82; N 2.92; S 2.25; P 3.05; E 2.89; M 2.04; C 2.15; F 1.99; Y 1.7; G 2.11; L 2.07; Q 2.47; D 2.39; A 2.26; K 2.06
D24: A 1.49; C 1.91
V19: R 2.34; H 2.35; D 2.48; P 2.73; T 2.39; S 2; L 2; K 1.91; C 2.49; G 2.21; A 2.45; Y 2.35; F 2.27; E 2.86; W 1.53; N 2.43; Q 2.6; I 1.61; M 1.62
A6: P 2.41; Y 1.57; W 2.05; M 2.08; K 2.13; R 1.84; L 1.69; Q 1.96; S 1.78; T 2.5; V 1.85; I 1.79; N 2.43
L21: Q 2.83; T 2.07; P 2.03; E 2.79; Y 1.89; N 2.63; H 2.11; C 2.32; A 2.34; M 1.99; K 2.6; G 2.56; V 1.64; I 1.57; F 1.88; S 2.32; W 2.56; R 2.14; D 3.07
R18: S 1.89; E 2.29; D 2.61; I 1.66; A 1.77; T 1.98; G 2.31; L 1.83; F 2.16; C 1.83; W 2.27; Q 1.79; M 1.97; N 2.07; H 1.98; Y 1.44; V 1.69; P 2.31; K 2.1
T15: S 2.38; E 2.48; H 2.15; P 1.81; F 1.99; L 1.47; C 1.91; M 1.97; I 1.68; G 2.36; V 1.75; R 2.06; Q 2.68; A 2.26; N 2.11; D 2.37; Y 1.39; K 2.25
A10: C 1.84; S 2.01; R 2.2; W 2.32; F 2.18; D 2.26; I 2; L 1.89; M 1.62; Y 1.86; Q 2.05; N 2.16; E 2.79; P 2.7; V 2.1; T 2.03; G 2.08; H 1.58; K 2.32
I22: M 2.77; E 3; Y 1.81; P 2.89; Q 2.31; V 2.92; A 1.76; R 2.24; S 2.67; W 3.09; D 2.96; F 2.06; N 2.72; T 2.41; K 2.34; G 1.72; H 2.2; L 1.72; C 2.33
R11: T 2.19; A 2.29; F 2.38; K 1.9; N 1.83; M 1.59; Q 2.16; D 2.82; G 2.31; P 1.84; I 1.75; S 2.18; C 2.07; H 2.16; Y 1.59; V 2.3; E 3.09; L 2.67
E8: H 2.25; Y 1.94; G 1.86; V 1.47; I 1.87; R 2.83; D 2.28; Q 1.8; F 1.86; N 1.81; C 2.11; S 1.72; A 1.52; T 2.11; M 2.11; P 2.44; K 1.93; W 2.04; L 2.29
K7: Y 1.75; E 2.74; G 1.99; D 2.58; A 2.23; R 1.86; M 1.82; S 2.56; I 2.5; L 1.42; Q 2.19; T 2.11; W 1.63; P 2.4; V 1.93; H 1.95; C 2.32; N 2.54; F 1.85
T20: C 2.74; I 1.84; M 1.82; Q 2.18; P 3.04; R 1.81; L 1.48; S 2.27; W 3.5; F 2.63; E 2.06; H 2.06; Y 1.81; A 1.73; V 1.38; N 2.56; G 1.59; K 2.07; D 1.92
N12: T 1.93; H 1.5; M 1.56; L 1.34; Q 1.7; S 1.97; W 3.12; Y 2.61; F 2.65; G 1.98; V 1.17; E 2.08; P 2.65; K 2.19; D 1.93; C 1.51; R 1.96; A 1.82; I 1.84
I13: Y 2.37; G 2.31; V 2.06; W 1.68; F 2.43; R 2.4; E 2.34; L 2.5; T 2.4; S 2.44; K 2; N 2.52; D 2.52; A 1.77; H 2.4; C 1.8; Q 2.38; P 2.21; M 1.64
R14: D 2.33; G 1.99; K 1.68; Y 2.85; M 2.04; V 2.05; L 1.55; I 2.02; C 1.83; P 1.85; E 2.18; F 2.38; A 2.17; Q 2.08; N 2.32; S 2.33; T 2.14; H 1.99; W 2.87
S16: D 2.33; T 1.89; C 2.02; A 1.99; W 2.1; V 1.34; P 2.33; Y 2.44; I 2.38; Q 2.18; R 2.34; N 2.64; K 2.09; F 1.58; M 2.28; E 2.57; G 2.41; H 1.78; L 1.39
G9: D 2.49; H 1.72; I 1.74; N 2.15; P 2.02; F 2.31; M 2.47; C 1.83; K 1.7; A 1.85; T 2.09; S 1.8; Q 2.09; L 2.12; Y 1.41; E 2.33; V 1.77; R 2.17
E17: Y 2.24; Q 1.87; H 1.8; V 3.52; K 2.18; C 3.19; S 1.91; A 2.17; I 2.25; P 1.54; N 2.22; F 3.19; D 1.74; G 3.65; L 3.89; R 1.46; M 2.82; T 1.23
